From the supplement of paper PMC10567573 come the findings set out here.

± gives the standard deviation.

This data set is described as follows: protein stability index of a GFP-peptide fusion (GPS, HEK-293T) (PSI 1-6); higher = more stable. As to conditions: c terminus: a fixed tail appended.
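Further: 24-mer peptide tiles fused after GFP, lentivirally expressed, FACS-sorted into six equal bins by GFP/DsRed ratio, decoded by Illumina sequencing, PSI is the read-weighted mean bin number.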

Take GLIISGPILQEGMDEEKLKQLNCV [DLC1]: the protein stability index came out at 3.52 ± 0.2 (treatment: DMSO) and 3.42 ± 0.3 (treatment: MLN4924 1 uM, 8 h).

For the sequence GLLEAPGLQPVVFVLFLFAYLVTV [OR3A1], the protein stability index is 2.53 ± 0.98 (treatment: DMSO) and 2.61 ± 0.8 (treatment: MLN4924 1 uM, 8 h).

In the case of GLSDPGKIKRLRSQVQVSLEDYIN [HNF4A], the protein stability index is, setting by setting: (treatment: DMSO) 2.78 ± 0.34; (treatment: MLN4924 1 uM, 8 h) 2.93 ± 0.18.

For GLVLLKHALGSPEKVKACQGQYET [TBC1D10A], the protein stability index stood at 2.74 ± 0.33 (treatment: DMSO) and 2.94 ± 0.047 (treatment: MLN4924 1 uM, 8 h).

As to GNISGEFWLGNEALHSLTQAGDYS [TNXB], the protein stability index runs as follows: (treatment: DMSO) 3.21 ± 0.091; (treatment: MLN4924 1 uM, 8 h) 3.36 ± 0.34.

As to GPCKNCKMIMDTAGNDPYCFVEFH [TIA1], the protein stability index stood at 2.2 ± 0.31 (treatment: DMSO) and 2.25 ± 0.35 (treatment: MLN4924 1 uM, 8 h).

Consider GPGGRRAGEPGHSPADYLRFQDLV [DYRK1B], for which the protein stability index by setting is: (treatment: DMSO) 3.07 ± 0.35; (treatment: MLN4924 1 uM, 8 h) 3.27 ± 0.6.

GPWQLNVFVCRVSAVLFYVNMYVS [P2RY14]: the protein stability index was 2.77 ± 0.36 (treatment: DMSO) and 2.72 ± 0.79 (treatment: MLN4924 1 uM, 8 h).

Regarding GRLGRRDEDAGLPRPVQLDETHPY [NEK8], the protein stability index reads like this: (treatment: DMSO) 4.46 ± 0.066; (treatment: MLN4924 1 uM, 8 h) 4.7 ± 0.1.

Regarding GRNRLYHDGKNQPSKTYPAFLEPD [SPSB1], the protein stability index is, setting by setting: (treatment: DMSO) 4.13 ± 0.12; (treatment: MLN4924 1 uM, 8 h) 4.37 ± 0.072.

As to GRVEVLKNGEWGTVCDDKWDLVSA [LOXL2], the protein stability index was determined as 4.2 ± 0.32 (treatment: DMSO) and 3.56 ± 0.64 (treatment: MLN4924 1 uM, 8 h).

Turning to GSGPIQLWQFLLELLTDKSCQSFI [ETS1], the protein stability index turned out to be 1.88 ± 0.67 (treatment: DMSO) and 2.94 ± 1.2 (treatment: MLN4924 1 uM, 8 h).

Turning to GSLEKALPIIQSNQVSSNSWGIAG [DLC1], the protein stability index by setting is: (treatment: DMSO) 3.35 ± 0.3; (treatment: MLN4924 1 uM, 8 h) 3.6 ± 0.2.

Turning to GSTLGGSSYSSCYSFGSGGGYGSS [KRT17], the protein stability index came out at 2.77 ± 0.23 (treatment: DMSO) and 2.98 ± 0.6 (treatment: MLN4924 1 uM, 8 h).

Regarding GSVAVVEAECEKSSATTYFWYREA [SLC6A17], the protein stability index reads like this: (treatment: DMSO) 2.81 ± 0.48; (treatment: MLN4924 1 uM, 8 h) 2.62 ± 0.35.

Regarding GTADGADLRTVDPETQARLEALLE [ANKRD17], the protein stability index (treatment: DMSO) turned out to be 4.42 ± 0.15 and the protein stability index (treatment: MLN4924 1 uM, 8 h) is 4.5 ± 0.21.

GTSTLLVWVGVIRYLTFFHNYNIL [MCOLN1]: the protein stability index reads like this: (treatment: DMSO) 3.35 ± 0.16; (treatment: MLN4924 1 uM, 8 h) 2.99 ± 0.2.

Take GVFGFFATIVFATDFYLIFNDVAK [CMTM3]: the protein stability index is, setting by setting: (treatment: DMSO) 2.75 ± 0.27; (treatment: MLN4924 1 uM, 8 h) 3.44 ± 0.43.

As to GVTGWCTGFIFQKVGKLAATAVGG [FUNDC2], the protein stability index runs as follows: (treatment: DMSO) 2.17 ± 0.048; (treatment: MLN4924 1 uM, 8 h) 2.48 ± 0.74.

In the case of GVVQALIVGYAFHFPHLLSPQIQR [TMEM175], the protein stability index is, setting by setting: (treatment: DMSO) 3.53 ± 0.28; (treatment: MLN4924 1 uM, 8 h) 3.25 ± 0.25.

Turning to GYFAFMLFRKRLGSMILAFRPRPN [GDAP1], the protein stability index reads like this: (treatment: DMSO) 2.69 ± 0.79; (treatment: MLN4924 1 uM, 8 h) 2.37 ± 0.57.

With HCNVSNILHMNGSQSSTYRGTYEQ [ZNF396], the protein stability index by setting is: (treatment: DMSO) 3.17 ± 0.21; (treatment: MLN4924 1 uM, 8 h) 3.24 ± 0.088.

As for HCTGNEATLAACTSNGWGVTDCKH [LOXL2], the protein stability index amounted to 3.98 ± 0.24 (treatment: DMSO) and 4.21 ± 0.28 (treatment: MLN4924 1 uM, 8 h).

The sequence HCTVKLRQTTGLMEYCLEVIKEND [TRIM9] had a protein stability index (treatment: DMSO) of 3.07 ± 0.29 and a protein stability index (treatment: MLN4924 1 uM, 8 h) of 3.32 ± 0.37.

Regarding HHPEVPQRILRIMCRLEELGLAGR [HDAC6], the protein stability index is, setting by setting: (treatment: DMSO) 2.09 ± 0.088; (treatment: MLN4924 1 uM, 8 h) 2.52 ± 0.7.

With HLEIDDMYTPAYGDFDFDEVKFPN [MYORG], the protein stability index is, setting by setting: (treatment: DMSO) 4.49 ± 0.12; (treatment: MLN4924 1 uM, 8 h) 4.26 ± 0.19.

With HLFLLGYSDGADDTFAAYTREQLY [MCOLN1], the protein stability index is, setting by setting: (treatment: DMSO) 2.08 ± 0.29; (treatment: MLN4924 1 uM, 8 h) 2.35 ± 0.18.

As to HLVIQNLFEGMIWFLVPISSVICN [CDS1], the protein stability index (treatment: DMSO) was found to be 2.96 ± 0.2 and the protein stability index (treatment: MLN4924 1 uM, 8 h) stood at 3.25 ± 0.41.

Take HLYPADFRFDKPKKSRSPASAEAP [ZNF511]: the protein stability index runs as follows: (treatment: DMSO) 3.38 ± 0.52; (treatment: MLN4924 1 uM, 8 h) 3.83 ± 0.45.

As to HPDIFLPSEICDRLVNEYVELVNA [ZER1], the protein stability index amounted to 2.56 ± 0.17 (treatment: DMSO) and 2.97 ± 0.35 (treatment: MLN4924 1 uM, 8 h).

As for HPGEHEVGEPEFHYIAGAHGNEVL [CPXM2], the protein stability index came to 5.1 ± 0.29 (treatment: DMSO) and 4.98 ± 0.31 (treatment: MLN4924 1 uM, 8 h).

The sequence HPLPTVIIVNLLWFIHLVFVVLAF [TMEM192] displayed a protein stability index (treatment: DMSO) of 3.37 ± 0.063 and a protein stability index (treatment: MLN4924 1 uM, 8 h) of 3.02 ± 0.7.

The sequence HQRIPQSVRILGSLVAILLVFLIT [SLC29A1] registered a protein stability index (treatment: DMSO) of 2.1 ± 0.37 and a protein stability index (treatment: MLN4924 1 uM, 8 h) of 2.33 ± 0.25.

In the case of HRVLQRLEQRRQQASEREAPSIEQ [FCHSD1], the protein stability index by setting is: (treatment: DMSO) 5.09 ± 0.25; (treatment: MLN4924 1 uM, 8 h) 4.99 ± 0.26.

For HSLYRRTGASFQKAQQEFAAGVFS [SCAMP3], the protein stability index (treatment: DMSO) was 2.81 ± 0.14 and the protein stability index (treatment: MLN4924 1 uM, 8 h) is 2.85 ± 0.14.

HTKELEDKVIELHKSHRGMTPAEA [EPB41L3]: the protein stability index was 5.2 ± 0.24 (treatment: DMSO) and 5.13 ± 0.16 (treatment: MLN4924 1 uM, 8 h).
